From patent US20090192048A1, “METHOD OF PRODUCING A […] AGENT FOR BINDING A LIGAND” (priority 2005, published 2009)
Ends that are not written are not given here.

assay: Retention of peptides 2DOS-1 to 2DOS-16 on a hydrophobic surface (polypropylene microtitre plate wells), water wash; format: physicochemical; settings: 400V scan; 100 μl of 10 μM peptide before drying and washing
Description: The retention of peptides 2DOS-1 to 2DOS-16 on a hydrophobic surface (the wells of a polypropylene microtitre plate) was then investigated.
(§1) 10 mM tris-HCl (pH 8.0) in 50% (v/v) aqueous acetonitrile was used as the solvent for the peptides and for TAMRA.
100 μl aliquots of 10 μM peptides 2DOS-1 to 2DOS-16 and 10 μM TAMRA were placed in the wells of a Costar microtitre plate as shown in FIG. 13:
(§2) The microtitre plate was imaged at 200 μm resolution on a Typhoon Trio Plus variable mode imager (Amersham Biosciences) with the green (532 nm) laser and the 580 BP 30 filter at the PMT voltages indicated below and at normal sensitivity. The scan height was set at +3 mm and the sample was pressed during scanning.
The peptides were allowed to evaporate to dryness overnight in the dark and the microtitre plate was again scanned as described above.
The wells were then washed ten times with 250 μl of water.
The residual surface-bound peptides were finally resuspended in 100 μl of 10 mM tris-HCl (pH 8.0) in 50% (v/v) aqueous acetonitrile and the microtitre plate was again scanned as described above.
(§3) The fluorescence images were analysed using ImageQuant TL v2003.03 (Amersham Biosciences).
Quantification data (using the data from the 400V scan) is given in Table 2 and shown graphically in FIG. 15.

**Q.** Which “Initial fluorescence (×10^3)” value does the source give for “N-TAMRA-Ser-Asp- Ser-Asp-Ser-Asp- Ser-Asp-Ser-C ({TAMRA}-SDSDSDSDS) [Peptide 2DOS-11]” here?
**A.** 26,860 ×10^3

**Q.** With “N-TAMRA-Asp-Phe- Asp-Phe-Asp-Phe- Asp-C ({TAMRA}-DFDFDFD) [Peptide 2DOS-14]” as the substance, how does the “Initial fluorescence (×10^3)” value read?
**A.** 28,071 ×10^3

same assay, conditions: 400V scan; dried, washed ten times with 250 μl water, resuspended

**Q.** For “N-TAMRA-Ser-Asp- Ser-Asp-Ser-Asp- Ser-Asp-Ser-C ({TAMRA}-SDSDSDSDS) [Peptide 2DOS-11]”, which “Recovered fluorescence (×10^3)” value is on record?
**A.** 0 ×10^3

**Q.** With “N-TAMRA-Asp-Phe- Asp-Phe-Asp-Phe- Asp-C ({TAMRA}-DFDFDFD) [Peptide 2DOS-14]” as the substance, how does the “Recovered fluorescence (×10^3)” value read?
**A.** 283 ×10^3

assay: Retention of peptides on Greiner polystyrene V-bottom wells; format: physicochemical; settings: 400V scan
Description: (§4) The retention of peptides 2DOS-1 to 2DOS-16 (see above) on polypropylene and polystyrene surfaces was compared:
(§5) 5 mM tris-HCl (pH 8.0) in 75% (v/v) aqueous acetonitrile was used as the solvent for the peptides and for TAMRA.
(§6) 20 μl aliquots of 5 μM peptides 2DOS-1 to 2DOS-16 and 5 μM TAMRA were pipetted into the wells of a Costar V-bottomed polypropylene microtitre plate, a Greiner V-bottomed polypropylene microtitre plate, and a Greiner V-bottomed polystyrene microtitre plate according to the scheme shown in FIG. 26:
(§7) The peptide samples were allowed to evaporate to dryness in the dark.
(§8) The peptide samples in the top two rows of the microtitre plates were then incubated for 15 minutes at room temperature in 250 μl of 1 M NaCl in 10 mM tris-HCl (pH 8.0).
(§9) After incubation, the wash buffer was pipetted up and down eight times in the well before removing the supernatant.
(§10) The washed and untreated peptide samples were then resuspended in 50 μl of 10 mM tris-HCl (pH 8.0) in 50% (v/v) aqueous acetonitrile.
as §2, with “plates were” for “plate was”
as §3

**Q.** With “N-TAMRA-Ser-Asp- Ser-Asp-Ser-Asp- Ser-Asp-Ser-C ({TAMRA}-SDSDSDSDS) [Peptide 2DOS-11]” as the substance, how does the Percent retention read?
**A.** 1%

**Q.** Which Percent retention does the source give for “N-TAMRA-Asp-Phe- Asp-Phe-Asp-Phe- Asp-C ({TAMRA}-DFDFDFD) [Peptide 2DOS-14]” here?
**A.** 9%

same assay, conditions: 400V scan, unwashed

**Q.** With “N-TAMRA-Ser-Asp- Ser-Asp-Ser-Asp- Ser-Asp-Ser-C ({TAMRA}-SDSDSDSDS) [Peptide 2DOS-11]” as the substance, how does the Untreated fluorescence read?
**A.** 675,269

**Q.** For “N-TAMRA-Asp-Phe- Asp-Phe-Asp-Phe- Asp-C ({TAMRA}-DFDFDFD) [Peptide 2DOS-14]”, which Untreated fluorescence is on record?
**A.** 860,811

same assay, conditions: 400V scan, washed 15 minutes in 1 M NaCl in 10 mM tris-HCl (pH 8.0)

**Q.** Which Retained fluorescence does the source give for “N-TAMRA-Ser-Asp- Ser-Asp-Ser-Asp- Ser-Asp-Ser-C ({TAMRA}-SDSDSDSDS) [Peptide 2DOS-11]” here?
**A.** 7,365

**Q.** Which Retained fluorescence does the source give for “N-TAMRA-Asp-Phe- Asp-Phe-Asp-Phe- Asp-C ({TAMRA}-DFDFDFD) [Peptide 2DOS-14]” here?
**A.** 75,304

assay: Retention of peptides in V-bottomed polypropylene wells; format: physicochemical; settings: V-bottom wells; 500V scan
Description: (§11) The retention of peptides 2DOS-1 to 2DOS-16 (see above) on polypropylene wells of different geometries was investigated:
as §1
(§12) 1 μl aliquots of 10 μM peptides 2DOS-1 to 2DOS-16 and 10 μM TAMRA were pipetted into the wells of a Costar V-bottomed polypropylene microtitre plate and a Greiner flat-bottomed polypropylene microtitre plate according to the following scheme as shown in FIG. 22:
as §7
(§13) The peptide samples in the top two rows of the microtitre plates were then incubated for 15′ minutes at room temperature in 250 μl of 1 M NaCl in 10 mM tris-HCl (pH 8.0).
as §9, §10
as §2, with “plates were” for “plate was”, “the platen” for “+3 mm”, “during,” for “during”
as §3

**Q.** With “N-TAMRA-Ser-Asp- Ser-Asp-Ser-Asp- Ser-Asp-Ser-C ({TAMRA}-SDSDSDSDS) [Peptide 2DOS-11]” as the substance, how does the Percent retention read?
**A.** 2%

**Q.** For “N-TAMRA-Asp-Phe- Asp-Phe-Asp-Phe- Asp-C ({TAMRA}-DFDFDFD) [Peptide 2DOS-14]”, which Percent retention is on record?
**A.** 13%

same assay, conditions: V-bottom wells; 500V scan; unwashed

**Q.** With “N-TAMRA-Ser-Asp- Ser-Asp-Ser-Asp- Ser-Asp-Ser-C ({TAMRA}-SDSDSDSDS) [Peptide 2DOS-11]” as the substance, how does the Untreated fluorescence read?
**A.** 9,705,293

**Q.** With “N-TAMRA-Asp-Phe- Asp-Phe-Asp-Phe- Asp-C ({TAMRA}-DFDFDFD) [Peptide 2DOS-14]” as the substance, how does the Untreated fluorescence read?
**A.** 7,641,246

same assay, conditions: V-bottom wells; 500V scan; washed 15 minutes in 1 M NaCl in 10 mM tris-HCl (pH 8.0)

**Q.** Which Retained fluorescence does the source give for “N-TAMRA-Ser-Asp- Ser-Asp-Ser-Asp- Ser-Asp-Ser-C ({TAMRA}-SDSDSDSDS) [Peptide 2DOS-11]” here?
**A.** 192,272

**Q.** For “N-TAMRA-Asp-Phe- Asp-Phe-Asp-Phe- Asp-C ({TAMRA}-DFDFDFD) [Peptide 2DOS-14]”, which Retained fluorescence is on record?
**A.** 1,018,179

assay: Retention of peptides on Costar polypropylene V-bottom wells; format: physicochemical; settings: 400V scan
Description: as §4, §5, §6, §7, §8, §9, §10
as §2, with “plates were” for “plate was”
as §3

**Q.** Which Percent retention does the source give for “N-TAMRA-Ser-Asp- Ser-Asp-Ser-Asp- Ser-Asp-Ser-C ({TAMRA}-SDSDSDSDS) [Peptide 2DOS-11]” here?
**A.** 2%

**Q.** Which Percent retention does the source give for “N-TAMRA-Asp-Phe- Asp-Phe-Asp-Phe- Asp-C ({TAMRA}-DFDFDFD) [Peptide 2DOS-14]” here?
**A.** 11%

same assay, conditions: 400V scan, unwashed

**Q.** For “N-TAMRA-Ser-Asp- Ser-Asp-Ser-Asp- Ser-Asp-Ser-C ({TAMRA}-SDSDSDSDS) [Peptide 2DOS-11]”, which Untreated fluorescence is on record?
**A.** 5,327,435

**Q.** Which Untreated fluorescence does the source give for “N-TAMRA-Asp-Phe- Asp-Phe-Asp-Phe- Asp-C ({TAMRA}-DFDFDFD) [Peptide 2DOS-14]” here?
**A.** 5,331,894

same assay, conditions: 400V scan, washed 15 minutes in 1 M NaCl in 10 mM tris-HCl (pH 8.0)

**Q.** With “N-TAMRA-Ser-Asp- Ser-Asp-Ser-Asp- Ser-Asp-Ser-C ({TAMRA}-SDSDSDSDS) [Peptide 2DOS-11]” as the substance, how does the Retained fluorescence read?
**A.** 102,040

**Q.** For “N-TAMRA-Asp-Phe- Asp-Phe-Asp-Phe- Asp-C ({TAMRA}-DFDFDFD) [Peptide 2DOS-14]”, which Retained fluorescence is on record?
**A.** 595,959

assay: Retention of peptides in flat-bottomed polypropylene wells; format: physicochemical; settings: flat-bottom wells; 500V scan
Description: as §11, §1, §12, §7, §13, §9, §10
as §2, with “plates were” for “plate was”, “the platen” for “+3 mm”, “during,” for “during”
as §3

**Q.** With “N-TAMRA-Ser-Asp- Ser-Asp-Ser-Asp- Ser-Asp-Ser-C ({TAMRA}-SDSDSDSDS) [Peptide 2DOS-11]” as the substance, how does the Percent retention read?
**A.** 3%

**Q.** For “N-TAMRA-Asp-Phe- Asp-Phe-Asp-Phe- Asp-C ({TAMRA}-DFDFDFD) [Peptide 2DOS-14]”, which Percent retention is on record?
**A.** 4%

same assay, conditions: flat-bottom wells; 500V scan; unwashed

**Q.** For “N-TAMRA-Ser-Asp- Ser-Asp-Ser-Asp- Ser-Asp-Ser-C ({TAMRA}-SDSDSDSDS) [Peptide 2DOS-11]”, which Untreated fluorescence is on record?
**A.** 13,960,552

**Q.** With “N-TAMRA-Asp-Phe- Asp-Phe-Asp-Phe- Asp-C ({TAMRA}-DFDFDFD) [Peptide 2DOS-14]” as the substance, how does the Untreated fluorescence read?
**A.** 15,090,582

same assay, conditions: flat-bottom wells; 500V scan; washed 15 minutes in 1 M NaCl in 10 mM tris-HCl (pH 8.0)

**Q.** For “N-TAMRA-Ser-Asp- Ser-Asp-Ser-Asp- Ser-Asp-Ser-C ({TAMRA}-SDSDSDSDS) [Peptide 2DOS-11]”, which Retained fluorescence is on record?
**A.** 476,318

**Q.** With “N-TAMRA-Asp-Phe- Asp-Phe-Asp-Phe- Asp-C ({TAMRA}-DFDFDFD) [Peptide 2DOS-14]” as the substance, how does the Retained fluorescence read?
**A.** 670,341

assay: Retention of peptides on Greiner polypropylene V-bottom wells; format: physicochemical; settings: 400V scan
Description: as §4, §5, §6, §7, §8, §9, §10
as §2, with “plates were” for “plate was”
as §3

**Q.** With “N-TAMRA-Ser-Asp- Ser-Asp-Ser-Asp- Ser-Asp-Ser-C ({TAMRA}-SDSDSDSDS) [Peptide 2DOS-11]” as the substance, how does the Percent retention read?
**A.** 2%

**Q.** For “N-TAMRA-Asp-Phe- Asp-Phe-Asp-Phe- Asp-C ({TAMRA}-DFDFDFD) [Peptide 2DOS-14]”, which Percent retention is on record?
**A.** 13%

same assay, conditions: 400V scan, unwashed

**Q.** With “N-TAMRA-Ser-Asp- Ser-Asp-Ser-Asp- Ser-Asp-Ser-C ({TAMRA}-SDSDSDSDS) [Peptide 2DOS-11]” as the substance, how does the Untreated fluorescence read?
**A.** 3,510,896

**Q.** Which Untreated fluorescence does the source give for “N-TAMRA-Asp-Phe- Asp-Phe-Asp-Phe- Asp-C ({TAMRA}-DFDFDFD) [Peptide 2DOS-14]” here?
**A.** 3,612,113

same assay, conditions: 400V scan, washed 15 minutes in 1 M NaCl in 10 mM tris-HCl (pH 8.0)

**Q.** With “N-TAMRA-Ser-Asp- Ser-Asp-Ser-Asp- Ser-Asp-Ser-C ({TAMRA}-SDSDSDSDS) [Peptide 2DOS-11]” as the substance, how does the Retained fluorescence read?
**A.** 86,818

**Q.** For “N-TAMRA-Asp-Phe- Asp-Phe-Asp-Phe- Asp-C ({TAMRA}-DFDFDFD) [Peptide 2DOS-14]”, which Retained fluorescence is on record?
**A.** 461,468
